In patent US20210380703A1 (RIGEL PHARMACEUTICALS, published 2021):
Changes are numbered by the printed parent chain.

B1: 369_C12 (antibody, V domains shown)
VH: EVQLLESGGGLVQPGGSLRLSCAASGFTFSSYGMNWVRQAPGKGLEWVANINYNGGYKGYADSVKGRFTISRDNSKNTLYLQMNSLRAEDTAVYYCARGATWHDTHLDYWGQGTLVTVSS
VL: DIQMTQSPSSLSASVGDRVTITCRASQSILTYLNWYQQKPGKAPKLLIYAATSRHSGVPSRFSGSGSGTDFTLTISSLQPEDFATYYCQQSYDTPLTFGGGTKVEIK
notes: VH/VL only
B2: 369_F09 (antibody, V domains shown)
VH: B1 VH with N35H, N50G, K58T, G59S
VL: B1 VL with L33V, H55A, T94S
notes: VH/VL only
B3: 370_E05 (antibody, V domains shown)
VH: B1 VH with A49S
VL: B1 VL with L30S, L47V, A51V, H55A, D93N, T94S
notes: VH/VL only
B4: 370_D03 (antibody, V domains shown)
VH: B1 VH with G33S, N50S, K58T, G59S
VL: B1 VL with L30I, H55A, T94L
notes: VH/VL only
B5: 371_F09 (antibody, V domains shown)
VH: B1 VH with G33S, N50G, K58T, G59S
VL: B1 VL with H55A, T94N
notes: VH/VL only
B6: 372_B09 (antibody, V domains shown)
VH: B1 VH with G33S, A49S, N50S, G55S, K58T, G59S
VL: B1 VL with H55A, D93E
notes: VH/VL only
B7: 371_B01 (antibody, V domains shown)
VH: B1 VH with S30D, G33S, A49S, G55S, K58T
VL: B1 VL with T31S, L33V, R54L, H55A, T94L
notes: VH/VL only
B8: 371_E12 (antibody, V domains shown)
VH: B1 VH with S30D, G33S, A49S, N50G, G55S, G59S
VL: B1 VL with T31S, R54L, H55A
notes: VH/VL only
B9: 369_H08 (antibody, V domains shown)
VH: B1 VH with G33S, N50G, G55S, G59S
VL: B1 VL with T31S, L33V, L47V, R54L, H55A, D93E, T94S
notes: VH/VL only
B10: 370_G08 (antibody, V domains shown)
VH: B1 VH with S31D, G33S, N50G, K58T
VL: B1 VL with L47V, H55A, D93E, T94S
notes: VH/VL only
B11: 369_H12 (antibody, V domains shown)
VH: B1 VH with G33S, N50G, G59S
VL: B1 VL with L30V, L33V, L47V, H55A, T94S
notes: VH/VL only
B12: 371_G01 (antibody, V domains shown)
VH: B1 VH with S31D, G33S, A49S, K58T, G59S
VL: B1 VL with R54L, H55A, T94L
notes: VH/VL only
B13: 371_H11 (antibody, V domains shown)
VH: B1 VH with G33S, A49S, N50G
VL: B1 VL with A51T, D93E, T94S
notes: VH/VL only
B14: 370_F12 (antibody, V domains shown)
VH: B1 VH with S31D, G33S, K58T
VL: B1 VL with T31S, T52S, R54L, H55Q, T94S
notes: VH/VL only
B15: 371_E05 (antibody, V domains shown)
VH: B1 VH with G33S, N50G, K58T, G59S
VL: B1 VL with L30I, T31S, L47V, H55A, D93S, T94S
notes: VH/VL only
B16: 370_F01 (antibody, V domains shown)
VH: B1 VH with A49S, K58T, G59S
VL: B1 VL with L30V, T31S, H55A, T94S
notes: VH/VL only
B17: 370_H04 (antibody, V domains shown)
VH: B1 VH with G33S, A49S, K58T
VL: B1 VL with T31S, L33V, H55A, T94L
notes: VH/VL only
B18: 370_C06 (antibody, V domains shown)
VH: B1 VH with G33S, G59S
VL: B1 VL with L33V, T52S, R54L, H55Q, D93S
notes: VH/VL only
B19: 369_D08 (antibody, V domains shown)
VH: B1 VH with S31D, G33S, N50S
VL: B1 VL with H55A
notes: VH/VL only
B20: 371_C07 (antibody, V domains shown)
VH: B1 VH with S30D, A49S, K58T, H106A
VL: B1 VL with T31S, R54L, H55A
notes: VH/VL only
B21: 369_F05 (antibody, V domains shown)
VH: B1 VH with G33S, A49S, N50G, G59S
VL: B1 VL with L30S, T31S, T52S, R54L, H55Q, S91G, T94S
notes: VH/VL only
B22: 370_E04 (antibody, V domains shown)
VH: B1 VH with G33S
VL: B1 VL with A51V, R54L, D93E
notes: VH/VL only
B23: 370_F02 (antibody, V domains shown)
VH: B1 VH with S30D, K58T
VL: B1 VL with T31S, A51V, T94S
notes: VH/VL only
B24: 370_C10 (antibody, V domains shown)
VH: B1 VH with S30D, G33S, A49S, G55S
VL: B1 VL with L30V, T31S, L33V, A51T, H55A, D93S, T94S
notes: VH/VL only
B25: 369_H02 (antibody, V domains shown)
VH: B1 VH with S30D, S31D, G33S, A49S, G59S
VL: B1 VL with L30I, T31S, H55A, T94S
notes: VH/VL only
B26: 371_E08 (antibody, V domains shown)
VH: B1 VH with G33S, A49S, G55S, G59S
VL: B1 VL with L30V, T31S, L33V, L47V, T94L
notes: VH/VL only
B27: 371_F03 (antibody, V domains shown)
VH: B1 VH with G33S, A49S, N50G, K58T, G59S
VL: B1 VL with L30I, R54L, T94N
notes: VH/VL only
B28: 370_H06 (antibody, V domains shown)
VH: B1 VH with S30D, S31D, G33S, K58T
VL: B1 VL with H55A, D93E
notes: VH/VL only
B29: 369_E05 (antibody, V domains shown)
VH: B1 VH with S31D, G59S
VL: B1 VL with R54L, H55A, D93E
notes: VH/VL only
B30: 370_D09 (antibody, V domains shown)
VH: B1 VH with S31D, G33S, A49S, N50G, G55S, K58T, G59S
VL: B1 VL with L30V, L47V, H55A
notes: VH/VL only
B31: 369_G05 (antibody, V domains shown)
VH: B1 VH with G33S, N50G, K58T, G59S
VL: B1 VL with L30V, T31S, T94S
notes: VH/VL only
B32: 369_E08 (antibody, V domains shown)
VH: B1 VH with G33S, N50S, G55S, K58T
VL: B1 VL with L33V, H55A, T94S
notes: VH/VL only
B33: 371_E09 (antibody, V domains shown)
VH: B1 VH with S31D, G33S, A49S, N50G, G55S, K58T, G59S
VL: B1 VL with H55A, D93N, T94S
notes: VH/VL only
B34: 371_C06 (antibody, V domains shown)
VH: B1 VH with G33S, A49S, N50S, K58T, G59S
VL: B1 VL with L30S, T31S, A51V, H55A, T94L
notes: VH/VL only
B35: 370_C07 (antibody, V domains shown)
VH: B1 VH with G33S, G59S
VL: B1 VL with T31S, D93E, T94S
notes: VH/VL only
B36: 370_B08 (antibody, V domains shown)
VH: B1 VH with S31D, G33S, K58T
VL: B1 VL with T31S, T52S, R54L, H55Q, T94S
notes: VH/VL only

Biological target: T1, Human ACVR2A (human, UniProt P27037 20-135, limits assumed)
T1 construct: also called activin receptor, type II A
T1 sequence (P27037 20-135 limits assumed): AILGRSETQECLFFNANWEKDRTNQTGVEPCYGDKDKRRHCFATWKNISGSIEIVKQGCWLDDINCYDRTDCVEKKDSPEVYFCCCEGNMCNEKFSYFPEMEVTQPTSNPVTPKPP
Assay: ELISA
Summary of the method: (§1)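 ELISA measured binding of ACVR2A-specific monoclonal antibodies to human and mouse ACVR2A. Biotinylated goat anti-human kappa light chain served as positive control and human Fc as negative control.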
Also: test concentration or dose not given here.

optical density [OD] | Binder
3.43 | B1
3.23 | B2
2.58 | B3
3.13 | B4
3.37 | B5
3.11 | B6
3.26 | B7
3.09 | B8
3.16 | B9
3.21 | B10
3.46 | B11
2.01 | B12
2.89 | B13
3.55 | B14
2.99 | B15
3 | B16
3.48 | B17
3.14 | B18

optical density [OD] | Binder
2.94 | B19
1.39 | B20
0.796 | B21
2.57 | B22
2.68 | B23
1.3 | B24
3.09 | B25
2.11 | B26
1.19 | B27
3.22 | B28
1.41 | B29
2.92 | B30
3.04 | B31
1.03 | B32
2.08 | B33
2.49 | B34
3.35 | B35
3.13 | B36

Biological target: Mouse ACVR2A (mouse, UniProt P27038 20-135, limits assumed)
Sequence (P27038 20-135 limits assumed): as the sequence (P27037 20-135 limits assumed) above, with K20R, V73I counted along it
Assay: ELISA
Summary of the method: as §1

optical density [OD] | Binder
3.45 | B1
3.38 | B2
2.77 | B3
3.25 | B4
3.57 | B5
3.01 | B6
3.27 | B7
2.99 | B8
3.23 | B9
3.33 | B10
3.42 | B11
2.24 | B12
3.12 | B13
3.57 | B14
3.18 | B15
3.14 | B16
3.56 | B17
3.41 | B18

optical density [OD] | Binder
3.13 | B19
1.45 | B20
0.931 | B21
2.72 | B22
2.89 | B23
1.38 | B24
3.29 | B25
2.27 | B26
1.3 | B27
3.39 | B28
1.64 | B29
2.53 | B30
3.28 | B31
1.23 | B32
2.28 | B33
3.01 | B34
3.37 | B35
3.25 | B36

Biological target: T2, Goat anti-Human Kappa
T2 construct: Positive control; also called biotinylated goat anti-human kappa light chain
Assay: ELISA; positive control
Summary of the method: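 Monoclonal antibodies were first applied to human or mouse ACVR2A, alongside biotinylated goat anti-human kappa light chain (positive control) and human Fc (negative control); binding was then determined by ELISA.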

optical density [OD] | Binder
3.74 | B1
3.6 | B2
3.52 | B3
3.58 | B4
3.6 | B5
3.5 | B6
3.58 | B7
3.62 | B8
3.56 | B9
3.56 | B10
3.65 | B11
1.79 | B12
3.6 | B13
3.64 | B14
3.45 | B15
3.67 | B16
3.62 | B17
3.55 | B18

optical density [OD] | Binder
3.06 | B19
3.36 | B20
3.46 | B21
3.4 | B22
3.63 | B23
3.35 | B24
3.57 | B25
2.64 | B26
1.82 | B27
3.51 | B28
1.9 | B29
3.48 | B30
3.31 | B31
1.12 | B32
3.15 | B33
3.44 | B34
3.3 | B35
3.35 | B36
